Measured values: PMC3320604, “A Genome-Wide Screen for Genetic Variants That Modify the Recruitment of REST to Its Target Genes”

T1: HisMBP-REST/DBD (UniProt Q13127 159-412)
T1 sequence: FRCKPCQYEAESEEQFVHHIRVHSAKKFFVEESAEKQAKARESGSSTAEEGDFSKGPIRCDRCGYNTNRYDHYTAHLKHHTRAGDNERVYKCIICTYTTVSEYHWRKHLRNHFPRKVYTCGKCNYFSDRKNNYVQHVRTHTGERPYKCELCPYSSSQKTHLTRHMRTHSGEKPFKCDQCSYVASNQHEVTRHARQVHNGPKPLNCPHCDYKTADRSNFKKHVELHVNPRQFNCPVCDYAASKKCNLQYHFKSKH


Legend:
HisMBP-REST/DBD [1] = target: T1, HisMBP-REST/DBD; test: competition EMSA; 10 mM Tris-HCl pH 8.0, 100 mM KCl, 50 uM ZnCl2 (printed '50 M ZnCl', symbols lost), 2 mM 2-mercaptoethanol, 10% glycerol, 0.1% NP-40, 0.1 mg/ml BSA; 0.5 nM probe, 150 nM competitor, 40 nM protein, 1 h; temperature lost in text; settings: protein: recombinant; tags: His-MBP
HisMBP-REST/DBD [2] = target: T1, HisMBP-REST/DBD; test: competition; 10 mM Tris-HCl pH 8.0, 100 mM KCl, 50 uM ZnCl2 (printed '50 M ZnCl', symbols lost), 2 mM 2-mercaptoethanol, 10% glycerol, 0.1% NP-40, 0.1 mg/ml BSA; 0.5 nM probe, 150 nM competitor, 40 nM protein, 1 h; temperature lost in text; settings: protein: recombinant; tags: His-MBP

| Binder | binding result (HisMBP-REST/DBD [1]) | binding result (HisMBP-REST/DBD [2]) |
| --- | --- | --- |
| Ideal RE1 (Chrm4) (dsDNA) DNA 1: TCAGCCTCTCTTCAGCACCTCGGACAGCTCCGGACCTCTC DNA 2: GAGAGGTCCGGAGCTGTCCGAGGTGCTGAAGAGAGGCTGA | binds |  |
| Mutated RE1 (Mut) (dsDNA) DNA 1: TCAGCCTCTCTTCAGCAGGTCCCACAGCTCCGGACCTCTC DNA 2: GAGAGGTCCGGAGCTGTGGGACCTGCTGAAGAGAGGCTGA |  | no binding |
